According to US8124087B2, “Methods of controlling bone loss by inhibiting DKK1” (Board of Trustees of the University of Arkansas, priority 2002, dated 2012):

Tests used:
[1] = system: multiple myeloma plasma cells; assay: Gene expression profiling of plasma cells before and after 48 hour in vivo drug treatment; parameters: species or system human; conditions: 48 hour in vivo treatment of patients
Text: Following Ficoll-Hypaque gradient centrifugation, plasma cells obtained from the bone marrow were isolated from the mononuclear cell fraction by immunomagnetic bead selection using a monoclonal mouse anti-human CD138 antibody (Miltenyi-Biotec, Auburn, Calif.). More than 90 percent of the cells used for gene expression profiling were plasma cells, as shown by two-color flow cytometry using CD138^+/CD45^− and CD38^+/ CD45^− markers, the presence of cytoplasmic immunoglobulin light chains by immunocytochemistry, and morphology by Wright-Giemsa staining. Total RNA was isolated with RNeasy Mini Kit (Qiagen, Valencia, Calif.). Preparation of labeled cRNA and hybridization to U95Av2 microarrays containing approximately 10,000 genes (Affymetrix, Santa Clara, Calif.) was performed as previously described (Zhan et al., 2002; Zhan et al., 2003). RNA amplification was not required.
To see if multiple myeloma plasma cells also upregulate the genes in response to drugs used to treat this disease, gene expression profiling of multiple myeloma plasma cells was performed before and after 48 hour in vivo treatment with thalidomide (FIG. 33), ImiD (FIG. 34), PS-341 (FIG. 32), or dexamethasone (FIG. 35). […] In support of this notion, […] and FRZB were expressed at low to undetectable levels in 30 HMCL and several cases of extramedullary disease (FIG. 15).

C2C12 cells [2] = assay: OPG mRNA (qPCR) and protein (ELISA) in osteoblast cells; assay type: cell-based, mouse
Experimental: (§1) C2C12 cells were cultured in 6-well plates in DMEM with 10% FBS and maintained at subconfluence. MM cells (5×10^5/ml) were seeded on the C2C12 in the presence or absence of Wnt3a-CM or Cont-CM for indicated times. For coculture with primary cells, CD138 positive cells were cultured on of the C2C12 monolayer […] in the presence or absence of rWnt3a with and without anti-DKK1 antibody (R&D System) for 48 hours. Total RNA was isolated using TRIZOL reagent (Invitrogen). Supernatants were harvested for protein analysis.
(§2) Microtiter plates were coated with 50 μl of anti-DKK1 antibody (R&D Systems, Minneapolis, Minn.) according to manufacturer recommendations. Bone marrow serum (1:50) in dilution buffer was added and incubated overnight at 4° C. Plates were washed and incubated with biotinylated goat anti-human DKK1 IgG (R&D Systems, Minneapolis, Minn.) followed by streptavidin-horseradish peroxidase (Vector Laboratories), according to manufacturer recommendations. The concentrations of OPG and RANKL proteins in cultured supernatant were measured using the kits from according to manufacturer recommendations (R&D Systems, Minneapolis, Minn.).
(§3) One microgram of total RNA was reverse transcribed into total cDNA. Quantitative PCR (qPCR) was performed using an ABI Prism 7000 sequence detection system (Applied Biosystems, Foster City, Calif.). The reaction mixture contained 1 ml of cDNA, dedicated buffers with specific primers and probes (5′-labeled by 6-carboxy-fluorescein and 3′-labeled by 1-carboxy-teteramethyrhdamine), and DNA polymerase in a total 20 ml volume. […] Each cDNA sample was analyzed in triplicate in parallel with GAPDH as a control. Changes in mRNA concentration were determined by subtracting the CT (threshold cycle) of target gene from the CT of GAPDH (Δ=CT gene−CT GAPDH). The mean of Δ control was subtracted from the ΔSiLRP5/6 reaction (mean Δ control−ASiLRP5/6=e) The difference was calculated as 2^e by the ^2-ΔΔCT (Livak and Schmittgen, 2001).

Saos-2 cells [3] = assay: as above; assay type: cell-based, human
Experimental: as §2
as §3, with “Calif.).” for “Calif.). The reaction mixture contained 1 ml of cDNA, dedicated buffers with specific primers and probes (5′-labeled by 6-carboxy-fluorescein and 3′-labeled by 1-carboxy-teteramethyrhdamine), and DNA polymerase in a total 20 ml volume.”, “2001). […]” for “2001).”

MG63 cells = assay: OPG mRNA (qPCR) in osteoblast cells; assay type: cell-based, human; conditions: data not shown
Experimental: One microgram of total RNA was reverse transcribed into total cDNA. Quantitative PCR (qPCR) was performed using an ABI Prism 7000 sequence detection system (Applied Biosystems, Foster City, Calif.). The reaction mixture contained […], dedicated buffers with specific primers and probes (5′-labeled by 6-carboxy-fluorescein and 3′-labeled by 1-carboxy-teteramethyrhdamine), and DNA polymerase in a total […]. Following 2 min incubation at 50° C. and 10 min incubation at 95° C. for denaturing, the reaction was subjected to 40-cycle amplification at 95° C. for 15 s to denature and at 60° C. for 1 min for annealing/extension. Each cDNA sample was analyzed in triplicate in parallel with GAPDH as a control. Changes in mRNA concentration were determined by subtracting the CT (threshold cycle) of target gene from the CT of GAPDH (Δ=CT gene−CT GAPDH). The mean of Δ control was subtracted from the ΔSiLRP5/6 reaction (mean Δ control−ASiLRP5/6=e) The difference was calculated as 2^e by the ^2-ΔΔCT (Livak and Schmittgen, 2001).

C2C12 cells [4] = assay: Alkaline phosphatase (ALP) assay, BMP-2-induced differentiation; assay type: cell-based, mouse; conditions: 72 hrs
Experimental: ALP activity was measured using ALP kit (Diagnostic Chemical Limited, Exton, Pa.) according to manufacturer instructions. Absorbance The of samples was determined with a Spectra Max340 Microplate Spectrophotometer (Molecular Devices, Sunnyvale, Calif.) at 402 nm. Cell lysates were analyzed for protein content with using the micro-BCA assay kit (Pierce, Rockford, Ill.).
Chemical synthesis of siRNA specific to LRP5/6, GFP, and control siRNA were purchased from Qiagen (Valencia, Calif.). The siRNA were transiently transfected into C2C12 using Lipofectamine according to manufacturer instructions (Invitrogen). RNA was isolated after 24, 48 or 72 hours then subjected to RT-PCR or qPCR for determination of efficacy of target gene silencing.

C2C12 cells [5] = assay: RANKL mRNA (qPCR) in osteoblast cells; assay type: cell-based, mouse; conditions: 48 hours
Experimental: as §1, §3

C2C12 cells [6] = assay: TOPflash LEF/TCF luciferase reporter gene assay; assay type: cell-based; conditions: mouse pre-osteoblasts
Experimental: Cells plated at 5×10^4 per well in a 12-well plate were transiently co-transfected with […] of either TOPflash, FOPflash (Korinek et al., 1997), or Cbfa-1-luc (kindly provided by Dr. Ying Zhang, NCI, NIH) and 50 ng of pSV-b-galactosidase vector to normalize for transfection efficiency using Lipofectamine according to manufacturer instructions (Invitrogen). Following transfection, cells were exposed to Wnt3a CM or control CM for 24 hr prior to luciferase assay. Luciferase activity was measured as previously described (Qiang et al., 2003).

C2C12 cells [7] = assay: Osteoblast differentiation assay (alkaline phosphatase), 5 days; assay type: cell-based, mouse; conditions: 50 ng/ml BMP-2 + 50 ng/ml recombinant human DKK1, 5 days
Experimental: C2C12 mesenchymal precursor cells (American Type Tissue Culture, Reston, Va.) were cultured in DMEM (Invitrogen, Carlsbad, Calif.) supplemented with 10 percent heat-inactivated fetal calf serum. Alkaline phosphatase activity in C2C12 cells was measured as described (Gallea, et al., 2001; Spinella-Jaegle, et al., 2001). Cell lysates were analyzed for protein content using the micro-BCA assay kit (Pierce, Rockford, Ill.).

C2C12 cells [8] = assay: GST-E-cadherin binding assay / immunoblot of uncomplexed b-catenin; assay type: cell-based, mouse
Saos-2 cells [9] = assay: as above; assay type: cell-based, human
Experimental: (§4) Cells were incubated in MEM, Wnt3a CM, control CM, or with recombinant Wnt3a for indicated times. For inhibition studies, cells were pretreated with purified recombinant Dkk1 at indicated concentrations or Dkk1 CM, Dkk2 CM, or bone marrow plasma with low or high concentrations of Dkk1 protein for one hour. Following treatment, cells were lysed as described (Qiang et al., 2002). Cell lysates were separated by SDS-PAGE and transferred to Immobilon polyvinylidene difluoride membranes (Millipore, Bedford, Mass.). Immunoblotting was performed using the indicated antibodies.
(§5) The GST-E-cadherin binding assay was performed as described (Bafico et al., 1998). Briefly, the beta-catenin binding site of E-cadherin as a GST-fusion protein was purified using GST beads. GST-E-cadherin was used to precipitate uncomplexed b-catenin present in 500 ng of cell lysate. Precipitated b-catenin was detected by immunoblotting using a b-catenin monoclonal antibody. Non-phosphorylated b-catenin was detected with a monoclonal antibody specific for b-catenin dephosphorylated at residues of 27-37 (Alexis, San Diego, Calif.).
The GST-E-cadherin binding assay was performed as described (Bafico et al., 1998). […] Precipitated beta-catenin was detected by immunoblotting analysis using a b-catenin monoclonal antibody (Qiang et al., 2005).

hFOB 1.19 cells = assay: as above; assay type: cell-based, human; conditions: lowest concentration tested (5 ng/ml)
Experimental: as §4, §5

[10] = dose- and time-dependent, maximum reached

Molecule: CC(C)C[C@H](NC(=O)[C@H](Cc1ccccc1)NC(=O)c1cnccn1)B(O)O [PS-341]
- DKK-1 and FRZB expression after drug treatment [1]: massively upregulated in many cases

Molecule: O=C1CCC(N2C(=O)c3ccccc3C2=O)C(=O)N1 (stereo not shown) [thalidomide]
- DKK-1 and FRZB expression after drug treatment [1]: massively upregulated in many cases

B1: Wnt3a: recombinant Wnt3a (R&D Systems), canonical Wnt ligand (protein, UniProt P56704 19-352, looked up)
Protein Wnt-3a: SYPIWWSLAVGPQYSSLGSQPILCASIPGLVPKQLRFCRNYVEIMPSVAEGIKIGIQECQHQFRGRRWNCTTVHDSLAIFGPVLDKATRESAFVHAIASAGVAFAVTRSCAEGTAAICGCSSRHQGSPGKGWKWGGCSEDIEFGGMVSREFADARENRPDARSAMNRHNNEAGRQAIASHMHLKCKCHGLSGSCEVKTCWWSQPDFRAIGDFLKDKYDSASEMVVEKHRESRGWVETLRPRYTYFKVPTERDLVYYEASPNFCEPNPETGSFGTRDRTCNVSSHGIDGCDLLCCGRGHNARAERRREKCRCVFHWCCYVSCQECTRVYDVHTCK
- increase of OPG protein relative to controls (ELISA of supernatants) (C2C12 cells [2]): 2000 fold
- increase of OPG mRNA (C2C12 cells [2]; [10]): 40 fold
- increase of OPG protein relative to controls (ELISA of supernatants) (Saos-2 cells [3]): 4 fold
- increase of OPG mRNA (Saos-2 cells [3]; [10]): 2 fold
- increase of OPG mRNA (MG63 cells): 1.5 fold
- ALP activity, factor alone (C2C12 cells [4]; DMEM with 2% horse serum): no effect
- RANKL mRNA after Wnt3a (C2C12 cells [5]): significant decrease in RANKL mRNA

B2: recombinant human DKK1: recombinant Dickkopf-1 protein, soluble inhibitor of Wnt signaling (protein)
chain: TLNSVLNSNAIKNLPPPLGGAAGHPGSAVSAAPGILYPGGNKYQTIDNYQPYPCAEDEECGTDEYCASPTRGGDAGVQICLACRKRRKRCMRHAMCCPGNYCKNGICVSSDQNHFRGEIEETITESFGNDHSTLDGYSRRTTLSSKMYHTKGQEGSVCLRSSDCASGLCCARHFWSKICKPVLKEGQVCTKHRRKGSHGLEIFQRCYCGEGLSCRIQKDHHQASNSSRLHTCQRH
- Wnt3a-induced increase in OPG mRNA in presence of DKK1 (C2C12 cells [2]; 100 ng/ml of DKK1 in culture media): significantly inhibited
- Wnt3a-induced TCF/LEF transcriptional activity in presence of Dkk1 (C2C12 cells [6]): completely attenuates
- alkaline phosphatase production with BMP-2 plus DKK1 (C2C12 cells [7]): not produced
- concentration of maximal inhibition of Wnt3a-increased non-phosphorylated b-catenin (C2C12 cells [8]; pretreatment before Wnt3a): 50 ng/mL
- b-catenin level (pull-down assay) (C2C12 cells [8]; recombinant DKK1 before Wnt3a): reduced
- inhibition of Wnt3a-increased non-phosphorylated b-catenin (Saos-2 cells [9]; lowest concentration tested (5 ng/ml)): pronounced inhibition
- b-catenin level (pull-down assay) (Saos-2 cells [9]; recombinant DKK1 before Wnt3a): reduced
- inhibition of Wnt3a-increased non-phosphorylated b-catenin (hFOB 1.19 cells): pronounced inhibition
- BMP-2-induced ALP activity after Dkk1 pretreatment (C2C12 cells [4]; 100 ng/ml Dkk1, presence or absence of Wnt3a): significantly inhibited ALP activity
- RANKL mRNA decreased by Wnt3a, after DKK1 pretreatment (C2C12 cells [5]; 100 ng/ml DKK1 pretreatment): restored
